{"source": "a protein production outcome set (Wang et al. 2014)"}
{"test": "label from the status in PepcDB records"}
{"sequence": "CDLERYPLTDLSEETFWNSESNAELALTSLYRGSLTDGVEYNPSDWWSYHGMIMMEHLSDNAFDRRGENNPFFKISSGNLTADNAFIKRYWETSYKRIGYCNRFLVGIQNSSESEKKTRMIAEARFLRATQYFYLASYFKNVPLVENVLTGEEANNVTKTSQADILKWCVTEFTAAAADLPRFSAIPAGEAGRACKQAALAFLGRTCMLQKDWKSGAKAFHDIMELGDNAINANYQELFYPSTGTSNKENIFYIQYLENYLGTGLPQHALSAKDGGWSLVNPAADLYESYEFKDGTPFSYDDPRYDPSNLGKDRDPRLDYTIYYNGAIFMGTEYKMSPDYSAAKKEKLDYTSEASRTGFMMRKYFEESTPINDVQSANGLTPVIRYAEVLLGYLECLVEDNQTITQGILDETINAVRGRASVNMPPVTEVTPAKLREIVRHERRIELAMEGIRYWDIMRWGIAHEVLSQKIWGAPYPGSTQYATTTKEVDPTGNYRWYVGKRAFRNPTDYTWPIPQSEQNINPNLRD", "protein production": "not failed"}
{"sequence": "CMPYRVEIFDTSHHSSSQCVGGMVVYENNAFQKNSYRRYHLKGSDEYTQMSELLTRRALDFAKEPPPNLWVIDGGRAQLNIALEILKSSGSFVEVIAISKEKRDSKAYRSKGGAKDIIHTPSDTFKLLPSDKRLQWVQKLRDESHRYAINFHRSTKLKNMKQI", "protein production": "failed"}
{"sequence": "CTNYSLLKLAGDVESNPGPTIFSKASADLNALSTSLGELTGMLKDLKAKAETYSPFYKMAKMLFKLATLAVAAMRTKDPVVVVMLIADFGLEVFDTGFFFSYFQEELQPYMKTIPGKISDLVTDAATAAAQIPKGVYSFVSSFFETPEGAVEKQ", "protein production": "failed"}
{"sequence": "DARVQVMGIDAGGTMTDTFFVKENGSFVVGKAQSNPEDESLAIYNSSQDALSHWKSDVSKVYPELVTCVYSGTAMLNRVVQRRGMEVGLICNKGFEQMHSMGRALQSYLGYALEERLHINTHKYDDPLIPLKRIRGVTERTDVKGQVVIPVRQEEVKVAVKELLEAGAKAIVICLLQSHKNAESERIVRDIALKEIEKLGKN", "protein production": "failed"}
{"sequence": "DAVELFKKANAMLDEDEDERVDEAALRQLTEMGFPENRATKALQLNHMSVPQAMEWLIEHAEDPTIDTPL", "protein production": "not failed"}
{"sequence": "DDLEVGKNIDESAYSGIYENNAYLRDGKSNLVSKVVELHGETYATTVKMGLSKTPNTATSAKVKIDAAYLETYNKAHNTDFALYPQDLVTFANEGILTVNANTKSAEVEMTIRAGEGLQEDKTYAIPVAISDQSSDITIKDEDAKHCIYLVKDMRNAGDAYKGEGVMQGYLFFEVNDVNPLNTLSFQLENGKLLWDVVVLFAANINYDAEAGRPRVQCNPNVQYLLDNNETLLQPLRRRGVKVLLGLLGNHDITGLAQLSEQGAKDFAREVAQYCKAYNLDGVNYDDEYSNSPDLSNPSLTNPSTAAAARLCYETKQAMPDKLVTVFDWGQMYGVATVDGVDAKEWIDIVVANYGSAAYPIGQMTKKQCSGISMEFNLGGGGSLSASKAQSMIDGGYGWFMGFAPSPAKYGSVFSRLQGGGEVLYGSNVAAPTIFYKKNDPTPYKYPDDL", "protein production": "not failed"}
{"sequence": "DDNERLSKVEKARQLREQVNDLFSRKFGEAIGMGFPVKVPYRKITINPGCVVVDGMPPGVSFKAPSYLEISSMRRILDSAEFIKFTVIRPFPGLVINNQLV", "protein production": "not failed"}
{"sequence": "DELEAAAESLEDGSLILEGSTDIRHVSLLLNRDLVDESEEYSTLSGYILFHLGRLPENGQKMHADGYIFEVVTMDGHKIEKVHIVADP", "protein production": "failed"}
{"sequence": "DETQVLATVTQELANLFQLESCYIELYNTDCTAVSVVCEYAANQPTYQGLTRQIADFSEIYQPLLQKQHFQTIEIVPGWHPQLLVITQLACPIFDAQGMLGNLWLIRPIQQMLSQSEICLVQTLANLCAIAIRQAKLDATNQARLKKLEQRESLTNKFLRKLSQELRTPITSISLAAQTLETVLSPTI", "protein production": "failed"}
{"sequence": "DGSFRRWSLRQVPEVQGAFMAMDVNSGRVLAMQGGFSYQYSVFNRATQATRQPGSSFKPFVYAAALDSGFTPATIVIDAPIEVQTAQGLWTPKNASGKYYGPTPLRTGVEQSRNLMTVRIAQEIGMDTVASYAERFGVYDRMGQFLANALGAEETTLFKMVAAYAMFANGGERVQPTLVDRVQDRFGRTIYRHDQRICDDCAQPLLPEGRAPHITSKRERVMDAITAYQLTSMMEGVIKRGTGRGINLPVPVAGKTGTTNDAKDVWFIGYTSNIVAGCYIGYDQPRSMGSASGGGFCGPVFQSFMTKAVKKYGGSEF", "protein production": "failed"}
{"sequence": "DHLILLPGWGLGSAPLEPLRDALHEREPHLNVLIEPLPSLDDAADWLDELDDNLPRDSWLAGWSLGGMLAGELAARRGDDCRGLLTLASNPCFRVREDWPNAMPAETFEDFFEAFLLEPHLTRKRFTLLVSQGARDPRTLARQLQVALPQLEREALVAGLQLLGQLDTRAALENFRGPQLHLFAEADALVPLAAAEALLEWLPDVEVSTLAASHGLPLECPDEVAGAILRFLRE", "protein production": "failed"}
{"sequence": "DKGTALLVNRSLRFGERTAEELMTPRVKIVTLSTTDTVADLIDTASRTGFSRFPVVESDLDDAVGVVHIKHAFAVPAHRRRTARLNSLAQKVPVVPSSLDGDALMERIRSDGMQVAFVVDEYGGTAGMVTMEDLIEEIVGDVR", "protein production": "failed"}
{"sequence": "DLAPSRVESLTLIMTSSGAQGLPMPNAALLQLLARRGAPDREVALEQQADLLAALGSPQVKDDREQLLHQAAVSYDRAFNPEGVKRQIMAILAEPSRVELLNRLRLPVLVVHGTADPLLPVMHGVHVAAHIQGSQLRLIPGLAHRFQEAFKAPLLGAVLPYLKA", "protein production": "failed"}
{"sequence": "DMAFQLRTERLDLNMWEESDAVWLRELIGERGVEMPTVESVRNDLIEKRKIAVENGISLLTIRRRDEGDFIGYCGLIIGRSTLEEPEIAYELFRSAHRMGYATEAASAVLEAAIATGRKRLWSTVGAWNTASFRVLEKIGFKR", "protein production": "failed"}
{"sequence": "DMLLVDEMKRGMAQGNASGKHLIILHTKGSHFNYTQRYPRSFAQWKPECVGVDNKCSKAELINSYDNSVTYVDHFIVSVLDQLRDKKAIVFYAADHGESINEREHLHGTPRKMAPPEQFRVPMMVWMSDKYLENPDHAAAFAHLQQQAAMKVPRRHVELYDTIMGCLGYTSPDGGINENNNWCRWKK", "protein production": "failed"}
{"sequence": "DNHGVVHCVESAPAAVSAGKRALSQLVEDQKIVFHTETVERAMNQLPAPTLVVLDPPRVGAGAETVRAIAQSGPQAAIHIGCDPATFARDIAEWSRNGFILEKLRVFDAFPGTHHCETIGLLTKKN", "protein production": "failed"}
{"sequence": "DNMEAVKTFNSELYSLNDYKPPISKAKMTQITKAAIKAIKFYKHVVQSVEKFIQKCKPEYKVPGLYVIDSIVRQSRHQFGQEKDVFAPRFSNNIISTFQNLYRCPGDDKSKIVRVLNLWQKNNVFKSEIIQPLLDMAAG", "protein production": "not failed"}
{"sequence": "DPLDNLVAPTAAAAAAAAGKKKQPSAAAAAATKTTANKVANSNNKANAGSNIGGPNAKKPNQAEKENKPNNALNKTDGKKFTPSADNKQQQFNNNASSNYK", "protein production": "failed"}
{"sequence": "DPQFHREGDDIVVEREIKFTDAALGASLDVPTLEGTKRVKVPAGIQSGTKIRLKGLGFPHMGKTAKGDLYVHINVSVPRSLSADQKAILEKLREAGL", "protein production": "failed"}
{"sequence": "DPSPQTIYKWIKDNISPKLHVDKGFVNILMTSFLQYISSEVNPPSDETDSSSAPS", "protein production": "failed"}
{"sequence": "DQDTLVQRAEHIPAGKRTPMCAHCNQVIRGPFLVALGKSWHPEEFNCAHCKNTMAYIGFVEEKGALYCELCYEKFFA", "protein production": "not failed"}
{"sequence": "DQHRPATLEALLAGVSLLLPMLDAIPNAAIFIKDSAARYALANNTLVQRCGLKRLQPLLGKTSAEVFPAQFGPGYTEQDRRVLKEGLVLEDQLELHLYGSREPGWCLTHKRPLYNPAGEIIGLVGISVDLQSAADSHP", "protein production": "failed"}
{"sequence": "DSFKTKSGKELTITFIKHGSLMLTYDNHSIQVDPVSEYADYTTFPKADIILITHEHGDHLDPKAIQAVEKSDTEIIANENSQKKLGKGKVLKNGDTDTSISYMKIEAVPAYNTTPGRDKYHPRHRDNGYILTFDGLRVYIAGDTEDIPEMKDLKDIDIAFLPVNQPYTMTVSQAAKAARMFSPKILYPYHYGDTKIGELKDALKDSGIDVRIRELQ", "protein production": "not failed"}
{"sequence": "DSLKAEVNTLFARFDEQPLAAASIAQVHTAALFDGREVIVKVTRPNIRTQILQDFEIISWLGQSLESRLEAARALHLSEIIQDYRQIILNELDLTLEADNTRRMRHYFTGSSMMYVPEVY", "protein production": "not failed"}
{"sequence": "DTVANASGPLMVEIVKTPGSALGISLTTTSLRNKSVITIDRIKPASVVDRSGALHPGDHILSIDGTSMEHCSLLEATKLLASISEKVRLEILPVPQSQRPLRPS", "protein production": "not failed"}
